Literature values, collected in US11324773B2, “Compounds, compositions and methods for inhibiting a pathogen and/or modifying mucus” (The University of North Carolina at Chapel Hill, priority 2017, dated 2022).

How the values were obtained:
[1] = system: HBE mucus; conditions: 30 μM, 24 h, versus controls
[2] = system: expectorated sputum; conditions: patients with CF, 10 d, 2.5 mg twice daily

| Molecule | decrease of viscosity and elasticity of HBE mucus [1] | reduction of expectorated sputum elasticity [2] | reduction of expectorated sputum viscosity [2] |
| --- | --- | --- | --- |
| CC(=O)N[C@@H](CS)C(=O)O [N-acetylcysteine] | by an order of magnitude | – | – |
| dornase alfa (protein, UniProt P24855 23-282, looked up, conventional mucolytic therapy used to treat CF) Deoxyribonuclease-1: LKIAAFNIQTFGETKMSNATLVSYIVQILSRYDIALVQEVRDSHLTAVGKLLDNLNQDAPDTYHYVVSEPLGRNSYKERYLFVYRPDQVSAVDSYYYDDGCEPCGNDTFNREPAIVRFFSRFTEVREFAIVPLHAAPGDAVAEIDALYDVYLDVQEKWGLEDVMLMGDFNAGCSYVRPSQWSSIRLWTSPTFQWLIPDSADTTATPTHCAYDRIVVAGMLLRGAVVPDSALPFNFQAAYGLSDQLAQAISDHYPVEVMLK | – | 68% | 59% |
